These results are taken from patent US20230296605A1.

Experiment [1] deals with PRRSV viral lysate (Porcine Reproductive and Respiratory Syndrome Virus). The experiment in a line: ELISA Test 1, coated lysate, antibody 1:4000, Group 1; PBS control 0.073/0.072. (In general: In an ELISA, binding on a coated surface is turned into a signal by an enzyme label.)
Experiment [2] shares this target. The experiment in a line: […], antibody immobilized; […].
Experiment [3] has the same target. In words: ELISA Test 2, coated lysate, antibody 1:4000; PBS control 0.118/0.121.
The target in experiment [4] is lysate of porcine coronavirus. The experiment in a line: ELISA Test 2, coated lysate, antibody 1:4000; PBS control 0.140/0.145.
For experiment [5], the target named is lysate of porcine pseudorabies virus. In words: ELISA Test 1, coated lysate, antibody 1:4000, Group 1; PBS control 0.080/0.089.
Experiment [6] deals with PRRSV viral lysate (Porcine Reproductive and Respiratory Syndrome Virus). In words: ELISA, coated lysate, 1 ug antibody.
Experiment [7] addresses lysate of porcine circovirus type 2. In words: ELISA Test 2, coated lysate, antibody 1:4000; PBS control 0.162/0.153.
Experiment [8] deals with PRRSV viral lysate (Porcine Reproductive and Respiratory Syndrome Virus). In words: ELISA Test 1, coated lysate, antibody 1:4000, Group 2; PBS control 0.058/0.060.
The target of experiment [9] is lysate of porcine pseudorabies virus. In words: ELISA Test 1, coated lysate, antibody 1:4000, Group 2; PBS control 0.054/0.052.

B1: anti-PRRSV antibody 477 (antibody, V domains shown)
VH: QVHVKQSGAELAKPGASVKMSCKASGYTFTNYWMHWVKQRPGQGLEWIGYINPSTGYTEYNQKFKDKATLTADKSSSTASMQLSSLTSEDSAVYYCGRSTAYGKYGEAWFAYWGQGTLVTVSA
VL: DIVMTQSPASLAVSLGQRATISCRTSESVDSFGNSFMHWYQQKPGQPPKLLIYLASNLESGVPARFSGSGSRTDFTLTIDPVEADDAATYYCQQNNEDPYTFGGGTKLEIKR
For B1, the OD450 was determined as 0.151 OD450 in experiment [1]; 0.66 OD450 in experiment [3]; 0.375 OD450 in experiment [4]; 0.095 OD450 in [5]; 0.303 OD450 in experiment [7]; 0.129 OD450 in [8]. Moreover, the OD450 in experiment [9] was found to be 0.08 OD450. This molecule also returned an electric signal, fold over the negative control in experiment [2] of 3 times. This molecule displayed a lowest concentration of PRRSV recognized in [6] of less than 0.78 ng.
